These results are taken from a protein production outcome set (Wang et al. 2014).

A short description of this series: label from the status in PepcDB records.
For the sequence “MKLHTSDLLIICAYLIAMIVIGLILKKRAAQNMDSYFLGGKSLPFYMLGLSNASGMFDITGTMLMVYWAFAYGFKSLWIPWLWPVFNQIFLMVYLSVWLRRSNVLTGAEWIKTRFGKGKGATLSHTIVVVFALLSVLGFLSYGFIGIGKFMEIFIPWEVISPYIPFTVSPEYVPHVYGIFFTAIATFYVMLGGMLSIVWTDVVQFLIMTVAGIVIVVIGMQMVAPDMIHSFVPAGWDSPFFGWTLDIDWSSRMSLLTERMANEPYSLIGIFVMMALLKGIFMSMAGPAPNYDMQKILSCKSPKEAAMMSGSVSVVLLIPRYLMIMGFALLAIYFFKEDGGLTQMEVTRTDFETILPHLITRYVPAGFAGLLLAGLLAAFMSTFASTVNAAPAYIVNDIYLKYINPKASVKTQIRSSYVISVAVVVVSTVIGFFLKDINEIFQWIVGALFGGYIAANVLKWHWWRFNGEGYFWGMTAGVVAAIVMKFTVPDAWVLYFFPVLFGVSLIGCIIGTYSAPATDEETLINFYVNVRPWGCWKPIQEKAIARYPHIQANKNFKRDAFNVAIGIIWQCTLTIIPMYLVVREQLGLWSSIALLLITTLILRKTWYKPLCKEEARYNEEMKQIR”, the protein production result is recorded as “failed”.

As for “ARYLDVTSRRDPEHSHRTYYVTGQVFFASADRFTASFDLREKVETLAIDLREAHFWDITAVAALDKVVLKLRRAGISVDVVGMNRATATLVDRFGVHDKPDGIDSLMGH”, the protein production entry was “failed”.

In the case of “MSRYRLREHAWCLRQLNVSNKSFLKRSFLVGLGYTPPIRYFIDIGPLPNWTRKEVNELILGRTRVRSPILKLLIELFVHRICSDPRFQVKSSSVNA”, the protein production entry was “failed”.

With “MNIDAVVEFTKKHLKDEKTGHDFYHGQRVANLASKMYLEDHPDAHADSRMVAIIKSGGYLHDTIDEKVCDNPDKVIAEIKELLPEVGFTDLEVWDILFTIQHMSFSANIEHHYHLPLSGQYVQDADRLESLGAMGIARAFTYGGKHGNKIYDPEIKPEKLVSHDQYRNHVETTINHFYEKLFHLADTMNTPAMKKEANRRTEYMHNFVQEFMNEWNVLEHHHHHH”, the protein production result is on record as “not failed”.

In the case of “MNNSINHKFHHISRAEYQELLAVSRGDAVADYIIDNVSILDLINGGEISGPIVIKGRYIAGVGAEYADAPALQRIDARGATAVPGFIDAHLHIESSMMTPVTFETATLPRGLTTVICDPHEIVNVMGEAGFAWFARCAEQARQNQYLQVSSCVPALEGCDVNGASFTLEQMLAWRDHPQVTGLAEMMDYPGVISGQNALLDKLDAFRHLTLDGHCPGLGGKELNAYITAGIENCHESYQLEEGRRKLQLGMSLMIREGSAARNLNALAPLINEFNSPQCMLCTDDRNPWEIAHEGHIDALIRRLIEQHNVPLHVAYRVASWSTARHFGLNHLDLLAPGKQADIVLLSDARKVTVQQVLVKGEPIDAQTLQAEESARLAQSAPPYGNTIARQPVSASDFALQFTPGKRYRVIDVIHNELITHSHSSVYSENGFDRDDVCFIAVLERYGQRLAPACGLLGGFGLNEGALAATVSHDSHNIVVIGRSAEEMALAVYQVIQDGGGLCVVRNGQVQSHLPLPIAGLMSTDTAQSLAEQIDALKAAARECGPLPDEPFIQMAFLSLPVIPALKLTSQGLFDGEKFVFTTLEVTE”, the protein production result is reported as “failed”.

As to “MSYQNANYSAFYVSEPFSESNLGANSTHDFVYYNMLRMWKGEDNSFPFNDAHDKTYNVRDGSDWEKTLKPRLHTRLDNSKNIILFLSSITANSRALREEMNYGIGTKGLPVIVIYPDYDKKSDIVDSNGNFKKQIKDLWDKLPAFRDNMSSVATLHIPCTKSVIISALNNEDFMVNTMADAEKYYYKP”, the protein production result is “not failed”.
